According to US8911953B2, “TDF-related compounds and analogs thereof, analogs and bioactive fragments” (Thrasos Innovation, Inc., priority 2005, dated 2014):
Like-named read-outs stand apart in the source and are kept apart here. Positions of bridges follow the written chain, without caps; N, C: chain ends. No end group written: not given here.

What was measured:
STZ CD1 mice = assay: Streptozotocin (STZ)-induced diabetic nephropathy model; type: in vivo, mouse; conditions: ip 5 mg/kg/24 hr, month 5 through 6
Description: Reversal of interstitial fibrosis by TDFRP compounds in a CD1 mouse model of streptozotocin (STZ)-induced diabetic nephropathy. A. Schematic of the STZ experimental protocol. Mice were injected with streptozotocin at Day 0 (D0) to induce diabetes and renal injury and sacrificed at 6 months (6M). Vehicle or BMP-7 (positive control) was administered from D0 through 6 months (6M). TDFRP (SEQ ID NO:45) was administered either orally or intraperitoneally from month 5 (5M) through 6M for 30 total days.; B: Kidney section of vehicle-treated STZ animal showing significant interstitial fibrosis; C: Kidney section of STZ animal that received ip administration of TDFRP compound (SEQ ID NO:45) (5 mg/kg/24 hr).
STZ-induced Type 1 diabetes is a widely used experimental model for diabetic nephropathy. Mice given iv STZ develop a progressive loss of pancreatic beta cells culminating in diabetes and renal damage within a six month period of time. In a typical experiment, TDFRP compounds can alleviate fibrosis, reduce proteinuria and protect the kidneys from STZ damage.
The effect of TDFRP compounds on cell damage due to diabetic nephropathy is measured by the method of Wang and coworkers (Wang et al., (2003) 63(6): 2037) (FIG. 8A). Diabetes is induced in 200 g rats by a single dose of streptozotocin.

ALK-3 = ALK-3 (Homo sapiens, UniProt P36894); assay: Radioligand receptor binding assay (competition with 125I-labeled TDF-1)
Sequence of ALK-3 (P36894 24-532, species assumed): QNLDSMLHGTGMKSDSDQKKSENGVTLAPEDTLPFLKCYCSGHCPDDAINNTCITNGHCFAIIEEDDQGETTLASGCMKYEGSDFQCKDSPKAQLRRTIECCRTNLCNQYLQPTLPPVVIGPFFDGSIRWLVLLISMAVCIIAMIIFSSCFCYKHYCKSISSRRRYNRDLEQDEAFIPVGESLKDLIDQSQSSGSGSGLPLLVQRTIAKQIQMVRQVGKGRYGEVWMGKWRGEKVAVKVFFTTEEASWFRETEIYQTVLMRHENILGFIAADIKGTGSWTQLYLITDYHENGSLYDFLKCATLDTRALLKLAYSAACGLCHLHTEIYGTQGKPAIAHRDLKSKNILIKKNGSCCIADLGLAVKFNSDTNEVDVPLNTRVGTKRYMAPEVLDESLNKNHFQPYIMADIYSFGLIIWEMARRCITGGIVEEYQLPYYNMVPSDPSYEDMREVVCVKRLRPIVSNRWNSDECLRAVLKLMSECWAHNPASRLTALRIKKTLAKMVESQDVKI
Text: Radioligand Receptor Binding Assays for ALK-3, ALK-6 and BMPR-2:
The assays are based on competition between ^125I-labeled TDF-1 (BMP-7 or OP-1 or other BMPs) and candidate TDFRP compounds or unlabeled TDF-1 for binding to respective receptors (ALK-3, ALK-6 or BMPR-2 or other BMP receptors or co-receptors). In brief, the procedure involves immobilization of receptor on 96 well Removawell plates, blocking the wells with 3% BSA in PBS and subsequently washing the wells. Increasing concentrations of unlabeled TDF-1 or TDFRP compounds or control (unlabeled TDF-1) prepared in binding buffer are then added. Incubate plate for 1 hour at room temperature, and then add a fixed amount of ^125I-labeled TDF-1 (250,000 to 350,000 cpm) to the wells and further incubate in cold (4° C.) for 20 hours. Aspirate the contents of the wells and wash the wells four times with a wash buffer, and count the receptor bound ^125I-labeled TDF-1 in an auto gamma counter.
Using this procedure, TDFRP compound binding to select ALK receptors are assessed. Accordingly, TDFRP compounds that preferentially bind select ALK receptors can be identified. For example, TDFRP compounds that preferentially bind to ALK-3 receptor compared with binding to other ALK receptors, e.g., ALK-6 (FIGS. 1, 15).
A. Radioligand Receptor Binding Assays For ALK-3, ALK-6 and BMPR-2: […]

Sequence: CYFDDSSNVLCKKYRS (disulfide 1-11 (inferred); not fully specified) [SEQ ID NO:45]
- renal interstitial fibrosis (STZ CD1 mice): effectively reversed
- binding to BMP Type I ALK-3 receptor compared to ALK-6 receptor (ALK-3): binds preferentially
- binding to BMP Type I ALK-3 receptor compared to ALK-6 receptor (ALK-3; listed as SEQ ID NO 45): selectively binds
